In article PMC4070925:

Target: thrombin (UniProt P00734;P00734 315-363;364-622)
Test: plate binding assay (streptavidin-peroxidase); Thrombin-coated plate; 5'-biotin aptamer in HEPES buffer (full composition not in material) 1 h; washes 40 mM HEPES pH 7.5, 0.05% Tween-20; block 1 mg/ml BSA +

Binder	apparent K (half saturation)
AGTCCGTGGTAGGGCAGGTTGGGGTGACT (structured_DNA) [Apt-29]	0.7 nM
Bivalent Linker 5 (structured_DNA) DNA: AGATGCCTGTCGAGCATGCTGGTTGGTGTGGTTGGAAGTAGGTGGTTCAAAGCAGTGAAGGGTACAGTCCGTGGTAGGGCAGGTTGGGGTGACTGTAGCTAAACTGCTTTGTCGACGGG	1 nM
Bivalent Linker 3 (structured_DNA) DNA: AGATGCCTGTCGAGCATGCTGGTTGGTGTGGTTGGGTAGGGGCCCAGCATGACAGTTTTTGCCAAAGTCCGTGGTAGGGCAGGTTGGGGTGACTGTAGCTAAACTGCTTTGTCGACGGG	0.4 nM
Bivalent Linker 2 (structured_DNA) DNA: AGATGCCTGTCGAGCATGCTGGTTGGTGTGGTTGGTTGGTTGGCGTTCAAAGCAGTCTTGGGCTAAGTCCGTGGTAGGGCAGGTTGGGGTGACTGTAGCTAAACTGCTTTGTCGACGGG	0.2 nM
Truncate II (structured_DNA) DNA: AGATGCCTGTCGAGCATGCTGGTTGGTGTGGTTGGTTGGTTGGCGTTCAAAGCAGTCTTGGGCTAAGTCCGTGGTAGGGCAGGTTGGGGTGACT	0.5 nM
Bivalent Linker 1 (structured_DNA) DNA: AGATGCCTGTCGAGCATGCTGGTTGGTGTGGTTGGATTGGGGGGCAGAATGCCAGTTTAGCGTACAGTCCGTGGTAGGGCAGGTTGGGGTGACTGTAGCTAAACTGCTTTGTCGACGGG	1.4 nM
Bivalent Linker 4 (structured_DNA) DNA: AGATGCCTGTCGAGCATGCTGGTTGGTGTGGTTGGGTTGTGGGGAATAAAAGCAGTTTAGCGTACAGTCCGTGGTAGGGCAGGTTGGGGTGACTGTAGCTAAACTGCTTTGTCGACGGG	0.4 nM
Bivalent Linker 6 (structured_DNA) DNA: AGATGCCTGTCGAGCATGCTGGTTGGTGTGGTTGGCGGGGGCCCTCTATAGTTGCGTTCTGGATGAGTCCGTGGTAGGGCAGGTTGGGGTGACTGTAGCTAAACTGCTTTGTCGACGGG	~20 nM
Truncate I (structured_DNA) DNA: GGTTGGTGTGGTTGGTTGGTTGGCGTTCAAAGCAGTCTTGGGCTAAGTCCGTGGTAGGGCAGGTTGGGGTGACTGTAGCTAAACTGCTTTGTCGACGGG	1 nM
Truncate III (structured_DNA) DNA: GGTTGGTGTGGTTGGTTGGTTGGCGTTCAAAGCAGTCTTGGGCTAAGTCCGTGGTAGGGCAGGTTGGGGTGACT	0.5 nM
